Here are results for three molecules from PMC9799976.

Assay [1] addresses full-length human dynein complex (heavy chain with SNAP-tag, IC, LIC, Tctex, LC8, Robl) (human) (UniProt Q14204). The assay is described as follows: single-molecule TIRF microscopy; 10 nM JIP3 (Halo-JF646) on surface-attached MTs, without or with 1 nM dynein; dwell time of JIP3 on MT-bound dynein.
In assay [2] the target is tail-truncated single-headed human dynein (amino acids 1320-4646 of DYNC1H1), N-terminal GFP (human) (UniProt Q14204).
Chain of tail-truncated single-headed human dynein (amino acids 1320-4646 of DYNC1H1), N-terminal GFP (human) (Q14204 1320-4646): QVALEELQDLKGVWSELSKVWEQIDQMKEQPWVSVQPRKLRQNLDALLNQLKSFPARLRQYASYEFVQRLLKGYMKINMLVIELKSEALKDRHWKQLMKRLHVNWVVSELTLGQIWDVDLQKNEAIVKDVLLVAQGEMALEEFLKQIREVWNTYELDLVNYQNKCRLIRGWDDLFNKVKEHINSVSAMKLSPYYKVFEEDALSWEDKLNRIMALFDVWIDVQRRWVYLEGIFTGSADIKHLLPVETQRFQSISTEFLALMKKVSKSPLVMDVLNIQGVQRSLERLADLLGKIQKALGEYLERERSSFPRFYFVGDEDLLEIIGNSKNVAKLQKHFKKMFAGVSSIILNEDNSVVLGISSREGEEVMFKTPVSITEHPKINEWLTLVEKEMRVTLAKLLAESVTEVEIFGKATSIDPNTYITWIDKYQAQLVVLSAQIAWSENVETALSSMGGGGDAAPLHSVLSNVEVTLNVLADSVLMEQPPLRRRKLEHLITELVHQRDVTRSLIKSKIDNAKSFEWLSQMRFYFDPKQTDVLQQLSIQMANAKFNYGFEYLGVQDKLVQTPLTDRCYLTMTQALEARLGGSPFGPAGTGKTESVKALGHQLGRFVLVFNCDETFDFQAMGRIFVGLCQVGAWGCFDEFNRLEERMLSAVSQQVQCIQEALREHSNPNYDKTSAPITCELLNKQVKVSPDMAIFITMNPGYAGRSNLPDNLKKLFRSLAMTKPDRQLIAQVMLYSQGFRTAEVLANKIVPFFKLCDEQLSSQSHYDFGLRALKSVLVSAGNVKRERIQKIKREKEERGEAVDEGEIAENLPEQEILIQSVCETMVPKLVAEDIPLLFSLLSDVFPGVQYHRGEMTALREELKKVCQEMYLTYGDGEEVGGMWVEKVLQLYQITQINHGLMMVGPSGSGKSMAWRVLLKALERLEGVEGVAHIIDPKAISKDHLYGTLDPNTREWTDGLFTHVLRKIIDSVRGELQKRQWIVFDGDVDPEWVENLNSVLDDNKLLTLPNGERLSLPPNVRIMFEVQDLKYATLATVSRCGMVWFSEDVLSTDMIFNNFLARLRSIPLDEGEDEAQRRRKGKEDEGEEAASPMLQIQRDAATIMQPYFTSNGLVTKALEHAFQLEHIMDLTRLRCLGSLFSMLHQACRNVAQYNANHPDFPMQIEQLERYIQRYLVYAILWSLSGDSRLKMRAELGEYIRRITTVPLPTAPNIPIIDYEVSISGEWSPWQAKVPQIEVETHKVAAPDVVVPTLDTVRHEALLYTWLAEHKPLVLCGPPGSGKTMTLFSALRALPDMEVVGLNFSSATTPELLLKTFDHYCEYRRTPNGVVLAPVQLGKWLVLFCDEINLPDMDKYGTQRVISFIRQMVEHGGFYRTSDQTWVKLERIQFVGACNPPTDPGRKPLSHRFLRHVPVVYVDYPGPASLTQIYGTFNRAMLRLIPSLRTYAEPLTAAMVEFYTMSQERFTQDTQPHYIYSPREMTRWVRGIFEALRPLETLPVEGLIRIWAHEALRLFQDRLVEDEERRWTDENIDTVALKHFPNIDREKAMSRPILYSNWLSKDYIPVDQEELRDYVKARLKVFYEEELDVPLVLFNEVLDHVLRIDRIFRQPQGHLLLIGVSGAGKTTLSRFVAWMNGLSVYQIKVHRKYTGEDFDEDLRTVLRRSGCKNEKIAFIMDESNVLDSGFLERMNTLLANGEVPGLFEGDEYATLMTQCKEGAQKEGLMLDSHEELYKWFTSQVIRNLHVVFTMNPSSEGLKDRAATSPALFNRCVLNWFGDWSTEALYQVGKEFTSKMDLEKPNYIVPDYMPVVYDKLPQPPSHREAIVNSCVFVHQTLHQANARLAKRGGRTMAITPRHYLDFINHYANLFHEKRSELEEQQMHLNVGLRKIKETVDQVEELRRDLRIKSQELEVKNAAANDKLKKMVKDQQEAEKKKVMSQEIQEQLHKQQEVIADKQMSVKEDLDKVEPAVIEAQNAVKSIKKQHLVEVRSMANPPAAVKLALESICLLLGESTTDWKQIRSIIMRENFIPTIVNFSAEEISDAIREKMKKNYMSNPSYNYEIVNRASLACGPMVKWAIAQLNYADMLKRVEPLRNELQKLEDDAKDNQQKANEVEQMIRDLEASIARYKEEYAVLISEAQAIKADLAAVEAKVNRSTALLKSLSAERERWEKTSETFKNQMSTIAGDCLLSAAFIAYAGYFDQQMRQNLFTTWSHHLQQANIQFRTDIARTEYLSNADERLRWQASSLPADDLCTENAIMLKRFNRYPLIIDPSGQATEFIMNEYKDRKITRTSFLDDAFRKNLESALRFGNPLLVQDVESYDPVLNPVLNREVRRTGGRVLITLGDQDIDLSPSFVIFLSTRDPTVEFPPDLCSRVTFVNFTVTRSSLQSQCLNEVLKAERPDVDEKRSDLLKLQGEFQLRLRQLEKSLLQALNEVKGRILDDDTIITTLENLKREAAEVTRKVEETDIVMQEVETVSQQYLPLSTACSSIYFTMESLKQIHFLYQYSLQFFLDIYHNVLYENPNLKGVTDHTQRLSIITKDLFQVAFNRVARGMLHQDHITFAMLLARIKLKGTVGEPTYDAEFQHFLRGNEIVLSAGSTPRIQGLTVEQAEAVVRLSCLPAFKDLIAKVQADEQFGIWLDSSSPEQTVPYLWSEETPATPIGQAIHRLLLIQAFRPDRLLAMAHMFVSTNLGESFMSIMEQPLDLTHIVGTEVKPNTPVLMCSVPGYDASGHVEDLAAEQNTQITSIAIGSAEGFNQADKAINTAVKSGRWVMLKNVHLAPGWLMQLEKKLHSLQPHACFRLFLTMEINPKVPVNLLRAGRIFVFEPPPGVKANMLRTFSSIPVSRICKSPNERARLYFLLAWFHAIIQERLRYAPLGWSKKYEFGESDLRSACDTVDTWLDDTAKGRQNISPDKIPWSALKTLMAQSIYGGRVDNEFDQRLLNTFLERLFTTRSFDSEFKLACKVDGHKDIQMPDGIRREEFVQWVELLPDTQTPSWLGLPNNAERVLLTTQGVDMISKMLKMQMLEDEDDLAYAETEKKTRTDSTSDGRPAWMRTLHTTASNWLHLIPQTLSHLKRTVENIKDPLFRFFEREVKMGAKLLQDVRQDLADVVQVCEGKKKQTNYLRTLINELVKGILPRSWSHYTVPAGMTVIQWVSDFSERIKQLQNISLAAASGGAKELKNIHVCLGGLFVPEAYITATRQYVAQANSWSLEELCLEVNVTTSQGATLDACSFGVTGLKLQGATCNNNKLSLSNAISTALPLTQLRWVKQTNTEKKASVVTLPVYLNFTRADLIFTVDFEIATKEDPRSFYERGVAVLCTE
In assay [3] the target is full-length human dynein complex (heavy chain with SNAP-tag, IC, LIC, Tctex, LC8, Robl) (human) (UniProt Q14204).

B1: mouse JIP3 (amino acids 1-240; cloned as 3-240) with C-terminal HaloTag (domain or fragment)
chain: EIQMDEGGGVVVYQDDYCSGSVMSERVSGLAGSIYREFERLIHCYDEEVVKELMPLVVNVLENLDSVLSENQEHEVELELLREDNEQLLTQYEREKALRKQAEEKFIEFEDALEQEKKELQIQVEHYEFQTRQLELKAKNYADQISRLEERESEMKKEYNALHQRHTEMIQTYVEHIERSKMQQVGGSGQTESSLPGRSRKERPTSLNVFPLADGMVRAQMGGKLVPAGDHWHLSDLG
modifications: Halo-JF646 on the HaloTag
As for B1, the dwell time of JIP3 on dynein in assay [1] came out at 0.42 s.

B2: N-DCX with a C-terminal ybbR-tag (N-DCX-ybbR) (domain or fragment)
chain: MELDFGHFDERDKTSRNMRGSRMNGLPSPTHSAHCSFYRTRTLQALSNEKKAKKVRFYRNGDRYFKGIVYAVSSDRFRSFDALLADLTRSLSDNINLPQGVRYIYTIDGSRKIGSMDELEEGESYVCSSDNFFKKVEYTKNVNPNWSVNVKTSANMKAPQSLASSNSAQARENKDFVRPKLVTIIRSGVKPRKAVRVLLNKKTAHSFEQVLTDITEAIKLETGVVKKLYTLDGKQVTCLHDFFGDDDVFIACGPEKFRYAQDDFSLDENE
modifications: CoA-CF488 or CoA-JF549 on the ybbR-tag
For the molecule B2, the velocity of MT gliding powered by surface-bound single-headed dynein with 10 nM N-DCX, not significantly changed (without N-DCX: 0.59 [0.56, 0.63] µm/s) in assay [2] is 0.58 µm/s. The molecule further returned a velocity of DDJ motor complexes on MTs with 10 nM N-DCX (DDJ only: 0.76 [0.65, 0.89] µm/s) in assay [3] of 0.54 µm/s.

B3: full-length DCX with a C-terminal ybbR-tag (DCX-ybbR) (natural protein)
chain: MELDFGHFDERDKTSRNMRGSRMNGLPSPTHSAHCSFYRTRTLQALSNEKKAKKVRFYRNGDRYFKGIVYAVSSDRFRSFDALLADLTRSLSDNINLPQGVRYIYTIDGSRKIGSMDELEEGESYVCSSDNFFKKVEYTKNVNPNWSVNVKTSANMKAPQSLASSNSAQARENKDFVRPKLVTIIRSGVKPRKAVRVLLNKKTAHSFEQVLTDITEAIKLETGVVKKLYTLDGKQVTCLHDFFGDDDVFIACGPEKFRYAQDDFSLDENECRVMKGNPSATAGPKASPTPQKTSAKSPGPMRRSKSPADSGNDQDANGTSSSQLSTPKSKQSPISTPTSPGSLRKHKDLYLPLSLDDSDSLGDSM
modifications: CoA-CF488 or CoA-JF549 on the ybbR-tag
In assay [3], B3 returned a velocity of DDJ motor complexes on MTs with 10 nM DCX (DDJ only: 0.76 [0.65, 0.89] µm/s) of 0.62 µm/s.
